Measured values reported in patent publication US20240400693A1 (Chugai, published 2024).
Numbering of substitutions follows the chain as printed. Read-outs that look alike come from different tables or passages of the source.

T1: HLA-DQ2.2 on Ba/F3 cells (human, UniProt P01909 24-216, limits assumed)
T1 construct: whole, on cells; also called Ba/F3-HLA-DQ2.2
T1 MHC II alpha: not shown
T1 MHC II beta: not shown

T2: HLA-DQ8 on Ba/F3 cells (human, UniProt P01909 24-216; P01920 33-230, limits assumed)
T2 construct: whole, on cells; also called Ba/F3-HLA-DQ8
T2 MHC II alpha: not shown
T2 MHC II beta: not shown

T3: HLA-DQ7.3 on Ba/F3 cells (human, UniProt P01909 24-216; P01920 33-230, limits assumed)
T3 construct: whole, on cells; also called Ba/F3-HLA-DQ7.3
T3 MHC II alpha: not shown
T3 MHC II beta: not shown

T4: HLA-DQ6.3 on Ba/F3 cells (human, UniProt P01920 33-230, limits assumed)
T4 construct: whole, on cells; also called Ba/F3-HLA-DQ6.3
T4 MHC II alpha: not shown
T4 MHC II beta: not shown

T5: HLA-DR on Ba/F3 cells (human, UniProt P01903 26-216; P79483 30-227, limits assumed)
T5 construct: whole, on cells; also called Ba/F3-HLA-DR
T5 MHC II alpha: not shown
T5 MHC II beta: not shown

T6: HLA-DQ5.1 on Ba/F3 cells (human, limits assumed)
T6 construct: whole, on cells; also called Ba/F3-HLA-DQ5.1
T6 MHC II alpha: not shown
T6 MHC II beta: not shown

B1: DQN0344H1013/L0620//DQN0385H1270/L0722-F6 (bispecific antibody)
heavy 1: QVQLVESGGGVVQPGRSLRLSCAASGFTFSSAYWMVWVRQAPGQGLEWMGAVYGGSDTTYYAKWTEGRFTISRDTSKNTLYLQMNSLRAEDTAVYYCAREPLNYYYYGELNVWGQGTLVTVSSASTKGPSVFPLAPSSKSTSGGTAALGCLVKDYFPEPVTVSWNSGALTSGVHTFPAVLKSSGLYSLSSVVTVPSSSLGTQTYICNVNHKPSNTKVDKRVEPKSCDKTHTCPPCPAPELRRGPSVFLFPPKPKDTLMISRTPEVTCVVVDVSHEDPEVKFNWYVDGVEVHNAKTKPREEQYNSTYRVVSVLTVLHQDWLNGKEYKCKVSNKALPAPIEKTISKAKGQPREPQVYTLPPSREEMTKNQVSLTCLVKGFYPSDIAVEWESNGQPENNYKTTPPYLDSDGSFFLYSKLTVDKSRWQEGNVFSCSVLHEALHAHYTREELSLSP
light 1: DIQMTQSPSSLSASVGDRVTITCQATENIYSGLAWYQQKPGKAPKLLIYYVSTLAYGIPARFSGSGSGTDFTLTISSLEPEDFAVYYCQTYEDVSAVTFGQGTKVEIKRTVAAPSVFIFPPSDEQLKSGTAEVVCLLNNFYPREAKVQWKVDNALQSGNSEESVTEQDSKDSTYSLSSTLTLSKADYEKHKVYACEVTHQGLSSPVTKSFNRGEC
heavy 2: QVQLVESGGGVVQPGRSLRLSCAASGFTFSEWYFMSWVRQAPGKGLEWVASIDTGSGSIDYAEWVEGRFTISRDNSKNTLYLQMNSLRAEDTAVYYCARDIGIDYNFWGPGTLVTVSSASTKGPSVFPLAPSSKSTSGGTAALGCLVEDYFPEPVTVSWNSGALTSGVHTFPAVLESSGLYSLSSVVTVPSSSLGTKTYICNVNHKPSNTKVDKRVEPKSCDKTHTCPPCPAPELRRGPSVFLFPPKPKDTLMISRTPEVTCVVVDVSHEDPEVKFNWYVDGVEVHNAKTKPREEQYNSTYRVVSVLTVLHQDWLNGKEYKCKVSNKALPAPIEKTISKAKGQPREPQVYTLPPSRKEMTKNQVSLTCLVKGFYPSDIAVEWESNGQPENNYKTTPPYLDSDGSFFLYSKLTVDKSRWQQGNVFSCSVLHEALHAHYTRKELSLSP
light 2: DIQMTQSPSSLSASVGDRVTITCQTTQSISSYLNWYQQKPGQPPKLLIYYASTKAEGIPARFSGSGLGTDFTLTISSLQPEDFAVYYCHYGISKVSFGQGTKVEIKRTVAAPSVFIFPPSDEQLKSGTAKVVCLLNNFYPREAKVQWKVDNALQSGNSKESVTEQDSKDSTYSLSSTLTLSKADYEKHKVYACEVTHQGLSSPVTKSFNRGEC
B2: DQN0344H1013/L0620//DQN0385H1521/L0605-F6 (bispecific antibody)
heavy 1: B1 heavy 1
light 1: B1 light 1
heavy 2: B1 heavy 2 with S30E, E31S
light 2: B1 light 2 with L67S, Q79E
B3: DQN0344H1013/L0620//DQN0385H1352/L0681-F6 (bispecific antibody)
heavy 1: B1 heavy 1
light 1: B1 light 1
heavy 2: B1 heavy 2 with T28E
light 2: B1 light 2 with Q79E

Columns and labels:
[1] = target: HLA-DQ2.5 on IHW09023 cells loaded with gamma 2 gliadin peptide (human; wheat); assay: cell-based or functional assay
[2] = target: HLA-DQ2.5 on IHW09023 cells loaded with gamma 4d gliadin peptide (human; wheat); assay: cell-based or functional assay
[3] = target: HLA-DQ2.5 on IHW09023 cells loaded with omega1/2 gliadin peptide (human; wheat); assay: cell-based or functional assay
[4] = target: HLA-DQ2.5 on IHW09023 cells loaded with gamma 1 gliadin peptide (human; wheat); assay: cell-based or functional assay
[5] = target: HLA-DQ2.5 on IHW09023 cells loaded with gamma 4a gliadin peptide (human; wheat); assay: cell-based or functional assay
[6] = target: HLA-DQ2.5 on IHW09023 cells loaded with 33mer gliadin peptide (human; wheat); assay: cell-based or functional assay
[7] = target: HLA-DQ2.5 on IHW09023 cells loaded with BC hordein peptide (human; barley); assay: cell-based or functional assay
[8] = target: HLA-DQ2.5 on IHW09023 cells loaded with gamma 3 gliadin peptide (human; wheat); assay: cell-based or functional assay
HLA-DQ2.2 on Ba/F3 cells [9] = target: T1, HLA-DQ2.2 on Ba/F3 cells; assay: FACS, Ba/F3 cells; %MFI: IC17dK 0, DQN0139bb 100
HLA-DQ8 on Ba/F3 cells [10] = target: T2, HLA-DQ8 on Ba/F3 cells; assay: FACS, Ba/F3 cells; %MFI: IC17dK 0, DQN0139bb 100
HLA-DQ7.5 on Ba/F3 cells [11] = target: T7, HLA-DQ7.5 on Ba/F3 cells (human, UniProt P01909 24-216; P01920 33-230, limits assumed); assay: FACS, Ba/F3 cells; %MFI: IC17dK 0, DQN0139bb 100
T7 construct: whole, on cells; also called Ba/F3-HLA-DQ7.5

HLA-DQ2.5 on Ba/F3 cells [12] = target: T8, HLA-DQ2.5 on Ba/F3 cells (human, UniProt P01909 24-216, limits assumed); assay: FACS, Ba/F3 cells; %MFI: IC17dK 0, DQN0139bb 100
T8 construct: whole, on cells; MHC class II without fused peptide; also called Ba/F3-HLA-DQ2.5

HLA-DQ7.3 on Ba/F3 cells [13] = target: T3, HLA-DQ7.3 on Ba/F3 cells; assay: FACS, Ba/F3 cells; %MFI: IC17dK 0, DQN0139bb 100
HLA-DQ6.3 on Ba/F3 cells = target: T4, HLA-DQ6.3 on Ba/F3 cells; assay: FACS, Ba/F3 cells; raw MFI
HLA-DR on Ba/F3 cells = target: T5, HLA-DR on Ba/F3 cells; assay: FACS, Ba/F3 cells; raw MFI
HLA-DQ5.1 on Ba/F3 cells = target: T6, HLA-DQ5.1 on Ba/F3 cells; assay: FACS, Ba/F3 cells; raw MFI
HLA-DP on Ba/F3 cells = target: T9, HLA-DP on Ba/F3 cells (human, UniProt P20036 29-222; P04440 30-225, limits assumed); assay: FACS, Ba/F3 cells; raw MFI
T9 construct: whole, on cells; also called Ba/F3-HLA-DP

HLA-DQ2.2 on Ba/F3 cells [14] = target: T1, HLA-DQ2.2 on Ba/F3 cells; assay: FACS, Ba/F3 cells; %MFI: IC17dK 0, DQN0139bb 100
HLA-DQ8 on Ba/F3 cells [15] = target: T2, HLA-DQ8 on Ba/F3 cells; assay: FACS, Ba/F3 cells; %MFI: IC17dK 0, DQN0139bb 100
HLA-DQ7.5 on Ba/F3 cells [16] = target: T7, HLA-DQ7.5 on Ba/F3 cells; assay: FACS, Ba/F3 cells; %MFI: IC17dK 0, DQN0139bb 100; remark: listed apart in the source
HLA-DQ2.5 on Ba/F3 cells [17] = target: T8, HLA-DQ2.5 on Ba/F3 cells; assay: FACS, Ba/F3 cells; %MFI: IC17dK 0, DQN0139bb 100; remark: listed apart in the source
HLA-DQ7.3 on Ba/F3 cells [18] = target: T3, HLA-DQ7.3 on Ba/F3 cells; assay: FACS, Ba/F3 cells; %MFI: IC17dK 0, DQN0139bb 100
HLA-DQ2.2 on Ba/F3 cells [19] = target: T1, HLA-DQ2.2 on Ba/F3 cells; assay: FACS, Ba/F3 cells; %MFI: IC17dK 0, DQN0139bb 100
HLA-DQ8 on Ba/F3 cells [20] = target: T2, HLA-DQ8 on Ba/F3 cells; assay: FACS, Ba/F3 cells; %MFI: IC17dK 0, DQN0139bb 100
HLA-DQ7.5 on Ba/F3 cells [21] = target: T7, HLA-DQ7.5 on Ba/F3 cells; assay: FACS, Ba/F3 cells; %MFI: IC17dK 0, DQN0139bb 100; remark: listed apart in the source
HLA-DQ2.5 on Ba/F3 cells [22] = target: T8, HLA-DQ2.5 on Ba/F3 cells; assay: FACS, Ba/F3 cells; %MFI: IC17dK 0, DQN0139bb 100; remark: listed apart in the source
HLA-DQ7.3 on Ba/F3 cells [23] = target: T3, HLA-DQ7.3 on Ba/F3 cells; assay: FACS, Ba/F3 cells; %MFI: IC17dK 0, DQN0139bb 100

T9 sequence (P20036 29-222 limits assumed, chain 1 of 4, other chains not shown): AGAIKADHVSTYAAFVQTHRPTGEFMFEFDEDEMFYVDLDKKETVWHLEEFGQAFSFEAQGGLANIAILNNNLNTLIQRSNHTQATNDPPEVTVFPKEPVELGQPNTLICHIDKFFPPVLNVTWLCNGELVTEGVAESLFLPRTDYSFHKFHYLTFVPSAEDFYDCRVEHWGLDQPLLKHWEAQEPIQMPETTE
T9 sequence (P04440 30-225 limits assumed, chain 2 of 4, other chains not shown): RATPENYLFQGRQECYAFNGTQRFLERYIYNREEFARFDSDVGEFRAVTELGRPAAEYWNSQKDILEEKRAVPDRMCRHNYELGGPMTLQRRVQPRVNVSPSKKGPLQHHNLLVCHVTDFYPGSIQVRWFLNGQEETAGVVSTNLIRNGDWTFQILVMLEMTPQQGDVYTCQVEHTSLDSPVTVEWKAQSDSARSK

Binder | IC50 (ng/mL), γ2 gliadin TCR, 250 nM γ2 gliadin [1] [ng/mL] | IC50 (ng/mL), γ4d gliadin TCR, 100 µM γ4d gliadin [2] [ng/mL] | IC50 (ng/mL), ω1 gliadin TCR, 25 µM ω1/2 gliadin [3] [ng/mL] | IC50 (ng/mL), ω2 gliadin TCR, 250 nM ω1/2 gliadin [3] [ng/mL] | IC50 (ng/mL), γ1 gliadin TCR, 250 nM γ1 gliadin [4] [ng/mL] | IC50 (ng/mL), γ4a gliadin TCR, 25 µM γ4a gliadin [5] [ng/mL] | IC50 (ng/mL), α1a gliadin TCR, 250 nM 33mer gliadin [6] [ng/mL] | IC50 (ng/mL), α1b gliadin TCR, 250 nM 33mer gliadin [6] [ng/mL] | IC50 (ng/mL), α2 gliadin TCR, 250 nM 33mer gliadin [6] [ng/mL] | IC50 (ng/mL), BC hordein TCR, 250 nM BC hordein [7] [ng/mL] | IC50 (ng/mL), γ3 gliadin TCR, 100 µM γ3 gliadin [8] [ng/mL] | binding result (HLA-DQ6.3 on Ba/F3 cells) | binding result (HLA-DR on Ba/F3 cells) | binding result (HLA-DQ5.1 on Ba/F3 cells) | binding result (HLA-DP on Ba/F3 cells) | also measured
B1 | 277 | 10.1 | 2.17 | 0.22 | 1.03 | 1150 | 0.27 | 1.25 | 0.33 | 9.7 | 3.31 | no binding (tested: 0.05 micro g/mL) | no binding (tested: 0.05 micro g/mL) | no binding (tested: 0.05 micro g/mL) | no binding (tested: 0.05 micro g/mL) | binding result (HLA-DQ2.2 on Ba/F3 cells [9]): no binding (tested: 0.05 micro g/mL); binding result (HLA-DQ8 on Ba/F3 cells [10]): no binding (tested: 0.05 micro g/mL); binding result (HLA-DQ7.5 on Ba/F3 cells [11]): no binding (tested: 0.05 micro g/mL); binding result (HLA-DQ2.5 on Ba/F3 cells [12]): no binding (tested: 0.05 micro g/mL); binding result (HLA-DQ7.3 on Ba/F3 cells [13]): no binding (tested: 0.05 micro g/mL)
B2 | 853 | 13 | 1.91 | – | 0.68 | 1350 | 0.28 | 1.76 | 0.33 | 8.98 | 1.4 | no binding (tested: 0.05 micro g/mL) | no binding (tested: 0.05 micro g/mL) | no binding (tested: 0.05 micro g/mL) | no binding (tested: 0.05 micro g/mL) | binding result (HLA-DQ2.2 on Ba/F3 cells [14]): no binding (tested: 0.05 micro g/mL); binding result (HLA-DQ8 on Ba/F3 cells [15]): no binding (tested: 0.05 micro g/mL); binding result (HLA-DQ7.5 on Ba/F3 cells [16]): no binding (tested: 0.05 micro g/mL); binding result (HLA-DQ2.5 on Ba/F3 cells [17]): no binding (tested: 0.05 micro g/mL); binding result (HLA-DQ7.3 on Ba/F3 cells [18]): no binding (tested: 0.05 micro g/mL)
B3 | 279 | 3.15 | 1.88 | 0.27 | 1.71 | 1730 | 0.26 | 1.13 | 0.38 | 11.6 | 3.15 | no binding (tested: 0.05 micro g/mL) | no binding (tested: 0.05 micro g/mL) | no binding (tested: 0.05 micro g/mL) | no binding (tested: 0.05 micro g/mL) | binding result (HLA-DQ2.2 on Ba/F3 cells [19]): no binding (tested: 0.05 micro g/mL); binding result (HLA-DQ8 on Ba/F3 cells [20]): no binding (tested: 0.05 micro g/mL); binding result (HLA-DQ7.5 on Ba/F3 cells [21]): no binding (tested: 0.05 micro g/mL); binding result (HLA-DQ2.5 on Ba/F3 cells [22]): no binding (tested: 0.05 micro g/mL); binding result (HLA-DQ7.3 on Ba/F3 cells [23]): no binding (tested: 0.05 micro g/mL)
